B1: TPR t1 (parent)
chain: GACCAAUCUGCCCUCAGAGCUCGAGAACAUCUUCGGAUGCAGAGGAGGCAGGCUUCGGUGGCGCGAUAGCGCCAACGUCCUCAACCUCCAAUGCAUCCCACCACAUGAUGAUGCCUGAAGAGCCUUGGUUUUUUG

In this series the parent is B1. As to the kind of experiment: polymerase ribozyme fitness, log enrichment relative to wild type (log ratio); higher = more active; in vitro selection for triplet polymerase activity. The method, boiled down: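 To select mutant libraries of each subunit of a heterodimeric triplet polymerase ribozyme, built by PCR and transcribed, each was annealed with a biotinylated primer, partner subunit and triplets, then incubated frozen at −7 °C. Extended constructs were gel-excised, captured on streptavidin beads and amplified by RT-PCR, in one round carried out in triplicate. Illumina sequencing of input and output libraries kept genotypes with ≥10 input reads and ≥1 read per output. Fitness is the base-2 logarithm of genotype enrichment relative to wild-type enrichment, from inverse-variance-weighted replicate averages.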
As to GACCAAUCUGCCCUCAGAGCUCGAGAACAUCUUCGGAUGCAGAGGAGGCUGGCUUCCGUGGCGCGAUAGCGCCAACGUCCUCAACCUCCAAUGCAUCCCACCACAUGAUGAUGCCUGAUGAGCCUUGGUUUUUUG [A50U G57C A119U], the “polymerase ribozyme fitness (log ratio)” value was -1.85. GACCAAUCUGCCCUCAGAGCUCGAGAACAUCUUCGGAUGCAGAGGAAGCAGGUUUCGGUGGCGCGAUAGCGCCAACGUCCUCAACCUCCAAUGCGUCCCACCACAUGAUGAUGCCUGAAGAGCCUUGGUUUUUUG [G47A C53U A95G]: the “polymerase ribozyme fitness (log ratio)” value is -3.19. For GACCAAUGUGUCCUCAGAGCUCGAGAACAUCUUCGGAUGCAGAGGAGGCAGGCUUCGGUGGCGCGAUAGCGCCAACGUCCUCAACCUCCAAUGCAUCCCACCACAUGAUGAUGCCUGAAGCGCCUUGGUAUUUUG [C8G C11U A121C U130A] the value was 1.01; for GACCAAUCUGCGCUCAGAGCUCGAGAACAUCUUCGGAUGCAGAUGACGCAGGCUUCGCUGGCGCGAUAGCGCCAACGUCCUCAACCUCCAAUGCAUCCCACCACAUGAUGAUGCCAGAAGAGCCUUGGUUUUUUG [C12G G44U G47C G58C U116A], -5.59; for GACCAAUUUGCCCUCAGAGCUCGAGAACAUCUUCGGAUGCAGAGGAGGCUGGCUUCGGUGGCGCGAUAGCGCCAACGUCCUCAACCUCCAAUGCAUCCCACCACAUGAUGAUGCCUCAAGAGCCUUGGUUUUUUG [C8U A50U G117C], -3.99.

With GACCAAUCUGCCCUCAGAGUUCGAGAACAUCUUCGGAUGCAGAGGAGGCAGGCUUCGGUGGCACGAUAGCGCCAACGUCCUCAACCUCCAAUGCAUCCCACCACAUGAUGAUGCCUGAAGAGCCUUGGUUUUUUG [C20U G63A], the “polymerase ribozyme fitness (log ratio)” value is -1.73. GACCAAUCUGCCAUCAGAGCUCGAGAACAUCUUCGGAUGCAGAGGAGGUAGGCUUCGGUGGCGCGAUAGCGCCAACGUCCUCAACCUCCAAUGCAUCCCACCACAUGAUGAUGCCUGAAGAGCCUUGGUUUUUUG [C13A C49U]: the “polymerase ribozyme fitness (log ratio)” value was -1.33. For GACCAAUCUGCCCUCAGAGCUCGAGAAAAUCUUCGGAUGCAGAGGAGGCAGGCUUCGGUUGCGCGAUAGCGCCUACGUCCUCCACCUCCAAUGCAUCCCACCACAUGAUGAUUCCUGAAGAGCCUUGGUUUUUUG [C28A G60U A74U A83C G113U] the value was -6.48. For GACCAAUGUGCCCUUAGAGCUCGAGAACAUCUUCGGAUGCAGAGGAGGCAGGCUUCGGUGGUGCGAUAGCGCCAACGUCCUCAACCUCCAAUGCAUCCCACCACAUGAUGAUGCCUGAAGAGCCUUGGUUUUUUU [C8G C15U C62U G135U] the value was -1.08. As for GACCAAUCUGCCCUCAGAGCUCGAGAACAUCUUCGGAUGCAGAGGAGGCAGGCUUCGGUGGCGCGAUAGCGCCAACGUCCUCAACCUCCAAUGCAUCCCACCACAUGAUGAUGGCUAAAGAGCCUUGGUUUUUUU [C114G G117A G135U], the “polymerase ribozyme fitness (log ratio)” value was -6.72. For GACCAAUCUGCCCUCAGAGCUCGAGAACAUCUUCGGAUGCAGAGGAGGCAGGCUUCGGUGGCGCGAUAGCGCCAACGUCCGAACCCUCCAAUGCAUCCCACCACAUGAUGAUGCCUGAAUAGCCUUGGUUUUUUG [U81G C82A A84C G120U] the value was -1.07.

As to GACCAAUCUGCCCUCAGAGCUCGAGAACAUCUUCGGAUGCAGAGGAGGCAGGCUUCGGUGGCGCGAUAGCGCCAACGGCCUCAACCUCUAAUGCAUCCCACCACAUGAUGAUGCCUGAAGAGCCGUGGUUUUUUG [U78G C89U U125G], the “polymerase ribozyme fitness (log ratio)” value was -0.754. For GACCAAUCUGCCCUCAGAGCUCGAGAACAUCUUCGGAUGCAGAGGAGCCAGGCUUCGGUGUCGCGAUAGCGCCAACGUCCUCAACCUCCAAUGCAUCUCACCACAUGAUGACGCCUGAAGAGCCUUGGUUUUUUG [G48C G61U C98U U112C] the value was -1.23; for GACCAAUCUGCCCUCAGAGAUCGAGAACAUCUUCGGAUGCUGAGGAGGCAGGCUUCGGUGACGCGAUAGCGCCAACGUCCUCAACCUCCAAUGCAUCCCACAACAUGAUGAUGCCUGAAGAGCCUUGGUUUUUUG [C20A A41U G61A C102A], -6.03. For GACCAAUCUGCCCUCAGAGCUCGAGAACAUCUUCGGAUGCAGAGGAGGCAGGCUUCGGUGGCGCGAUAGCGCAAACGUCCUCAACCUCCAAUGCAUCCCACCACAUGAUGUUGCCUGAAGAGCCUUGGUUUUUUG [C73A A111U], the “polymerase ribozyme fitness (log ratio)” value is -2.93. For GACCAAUCUACCCUCAGAGCUCGAGAACAUCUUCGGAUGCAGAGGAGGCAGGCUACGGUCGCGCGAUAGCGCCAACGUCCUCAACCUCCAAUGCAUCCCACCACAUGAUGAUGCCUGAAGAACCUUGGUUUUUUG [G10A U55A G60C G122A] the value was -0.167; for GACCAAUCUGCCAUCAGAGCUCGAGAACAUCUUCGGAUGCAGAGGAGGCAGGCUUCGGUGGCGCGAUAGCGCCAACGUCCUCAACCUGCAAUGCAUCCCACCACAUGAUGAUGCCUGAAGAGCCUUGGUUUUUUG [C13A C88G], -3.12.

Turning to GACCAAUCUGCCCUCAGAGCUCGAGAACAUCUUCGGAUGCCGAGGAGGCAGGCUUCGGUGGCGCGAUAGCGCCAACGUCCUCAACCUCCAAUGCAUCCCACCACAUGAUGAUGCCUGAAGAGCGUUGGUUUUUUG [A41C C124G], the “polymerase ribozyme fitness (log ratio)” value stood at 0.528. Then GACCAAUCUGCCCUCAGAGCUCGAGAACAUCUUCGGAUGCACAGGAGGCAGGCUUCGGUGGCGCGAUAGCGCCAACGUCCUCAACCUCCAAUGCAUCCCACCACAUGAUGAUCCCUGAAGAGCCUUGGUUUUUUG [G42C G113C], with -2.1.

Regarding GACCAAUGUGCGCUCAGAGCUCGAGAACAUCUUCGGAUGCAGAGGAGGCAGGCUUCGGUGGCGCGAUAGCGCCAACGUCCUCAACCUCCAAUGCAUCCCACCACAUGAUGAUGCCUGAAGAGCCUUGGUUUUUUG [C8G C12G], the “polymerase ribozyme fitness (log ratio)” value was 0.399. Regarding GACCAAUCUGCCCUCAGAGCUCGAGAACAUCUUCGGAUGCAGAGGAGGCAGGCUUCGGUGGCGUGAUAGCGCCAACAUCAUCAACCUCCAACGCAUCCCACCACAUGAUGAUGCCUGAAGAGCCUUGGUUUUUUG [C64U G77A C80A U92C], the “polymerase ribozyme fitness (log ratio)” value was -5.1.

For the origin of these results see the RNAGym collection of RNA variant scans (doi:10.1073/pnas.2313332121).
